According to patent US20040170644A1:
No end group written: not given here.

T1: HLA-DR13 molecule (DRB1*1301) (human)
T1 chain 1: not shown
T1 chain 2: not shown

T2: HLA-DRB3*0101 molecule (human)
T2 chain 1: not shown
T2 chain 2: not shown

T3: HLA-DRB5*0101 molecule (human)
T3 chain 1: not shown
T3 chain 2: not shown

T4: HLA-DR11 molecule (DRB1*1101) (human)
T4 chain 1: not shown
T4 chain 2: not shown

T5: HLA-DR1 molecule (DRB1*0101) (human)
T5 chain 1: not shown
T5 chain 2: not shown

T6: HLA-DR4 molecule (DRB1*0401) (human)
T6 chain 1: not shown
T6 chain 2: not shown

T7: HLA-DR7 molecule (DRB1*0701) (human)
T7 chain 1: not shown
T7 chain 2: not shown

T8: HLA-DRB4*0101 molecule (human)
T8 chain 1: not shown
T8 chain 2: not shown

T9: HLA-DR15 molecule (DRB1*1501) (human)
T9 chain 1: not shown
T9 chain 2: not shown

T10: HLA-DR3 molecule (DRB1*0301) (human)
T10 chain 1: not shown
T10 chain 2: not shown

B1: E7(7-27) (peptide)
peptide: TLHEYMLDLQPETTDLYCYEQ
modifications: not checked
B2: E6(105-126) (peptide)
peptide: DLLIRCINCQKPLCPEEKQRHL
modifications: not checked
B3: E6(121-140) (peptide)
peptide: EKQRHLDKKQRFHNIRGRWT
modifications: not checked
B4: E6 42-56 (peptide)
peptide: QQLLRREVYDFAFRD
modifications: not checked
B5: B1 21-36 (nonbiotinylated) (peptide)
peptide: TERVRLVTRHIYNREE
modifications: not fully specified
B6: E6 76-90 (peptide)
peptide: FYSKISEYRHYCYSL
modifications: not checked
B7: E6(45-67) (peptide)
peptide: LRREVYDFAFRDLCIVYRDGNPY
modifications: not checked
B8: E6(14-34) (peptide)
peptide: ERPRKLPQLCTELQTTIHDII
modifications: not checked
B9: E7(65-87) (peptide)
peptide: LRLCVQSTHVDIRTLEDLLMGTL
modifications: not checked
B10: E7 6-20 (peptide)
peptide: PTLHEYMLDLQPETT
modifications: not checked
B11: E7(1-20) (peptide)
peptide: MHGDTPTLHEYMLDLQPETT
modifications: not checked
B12: E6 84-98 (peptide)
peptide: RHYCYSLYGTTLEQQ
modifications: not checked
B13: E6 97-111 (peptide)
peptide: QQYNKPLCDLLIRCI
modifications: not checked
B14: E6 130-144 (peptide)
peptide: QRFHNIRGRWTGRCM
modifications: not checked
B15: E7 84-98 (peptide)
peptide: MGTLGIVCPICSQKP
modifications: not checked
B16: E6 89-103 (peptide)
peptide: SLYGTTLEQQYNKPL
modifications: not checked
B17: E7(60-74) (peptide)
peptide: KCDSTLRLCVQSTHV
modifications: not checked
B18: E6 93-107 (peptide)
peptide: TTLEQQYNKPLCDLL
modifications: not checked
B19: E6 124-138 (peptide)
peptide: HLDKKQRFHNIRGR
modifications: not checked
B20: E7 77-91 (peptide)
peptide: RTLEDLLMGTLGIVC
modifications: not checked
B21: E6 81-95 (peptide)
peptide: SEYRHYCYSLYGTTL
modifications: not checked
B22: E6 55-69 (peptide)
peptide: RDLCIVYRDGNPYAV
modifications: not checked
B23: E7 13-27 (peptide)
peptide: LDLQPETTDLYCYEQ
modifications: not checked
B24: E6 24-38 (peptide)
peptide: TELQTTIHDIILECV
modifications: not checked
B25: E7 67-81 (peptide)
peptide: LCVQSTHVDIRTLED
modifications: not checked
B26: E7 65-79 (peptide)
peptide: LRLCVQSTHVDIRTL
modifications: not checked
B27: E7(21-40) (peptide)
peptide: DLYCYEQLNDSSEEEDEIDG
modifications: not checked
B28: E6(1-22) (peptide)
peptide: MHQKRTAMFQDPQERPRKLPQL
modifications: not checked

Target: T1, HLA-DR13 molecule (DRB1*1301) (human)
Test: competition ELISA vs biotin-B1 21-36

Binder	IC50
B1	7500 nM
B2	5000 nM
B3	1130 nM
B4	375 nM
B5	330 nM
B6	225 nM

Target: T2, HLA-DRB3*0101 molecule (human)
Test: competition ELISA vs biotin-Lol 191-210

Binder	IC50
B1	8.5 nM
B7	2500 nM
B8	1450 nM
B9	850 nM
B10	90 nM
B11	35 nM

Target: T3, HLA-DRB5*0101 molecule (human)
Test: competition ELISA vs biotin-HA 306-318

Binder	IC50
B12	900 nM
B2	30 nM
B7	65 nM
B13	5500 nM
B14	75 nM
B15	90 nM
B3	85 nM
B16	200 nM
B17	200 nM
B18	325 nM
B19	75 nM
B20	700 nM
B6	1050 nM
B21	2500 nM

Target: T4, HLA-DR11 molecule (DRB1*1101) (human)
Test: competition ELISA vs biotin-HA 306-318

Binder	IC50
B12	7000 nM
B1	600 nM
B2	5000 nM
B7	125 nM
B14	115 nM
B3	350 nM
B22	250 nM
B17	7000 nM
B10	1500 nM
B19	475 nM
B4	6000 nM
B21	725 nM
B23	3500 nM
B11	1750 nM

Target: T5, HLA-DR1 molecule (DRB1*0101) (human)
Test: competition ELISA vs biotin-HA 306-318

Binder	IC50
B2	1750 nM
B24	425 nM
B13	575 nM
B14	4 nM
B3	125 nM
B16	125 nM
B8	3500 nM
B22	1500 nM
B9	650 nM
B25	7000 nM
B17	5000 nM
B10	750 nM
B19	10 nM
B6	125 nM
B21	10 nM
B26	750 nM
B23	4000 nM
B11	2500 nM

Target: T6, HLA-DR4 molecule (DRB1*0401) (human)
Test: competition ELISA vs biotin-HA 306-318

Binder	IC50
B1	60 nM
B2	3750 nM
B13	325 nM
B16	5000 nM
B9	650 nM
B25	7500 nM
B10	175 nM
B27	1750 nM
B23	4250 nM

Target: T7, HLA-DR7 molecule (DRB1*0701) (human)
Test: competition ELISA vs biotin-YKL

Binder	IC50
B12	3250 nM
B7	2330 nM
B24	1500 nM
B14	950 nM
B15	1250 nM
B3	200 nM
B16	1500 nM
B8	225 nM
B9	900 nM
B25	1500 nM
B17	900 nM
B18	7750 nM
B20	55 nM
B26	600 nM

Target: T8, HLA-DRB4*0101 molecule (human)
Test: competition ELISA vs biotin-E2/E168

Binder	IC50
B1	375 nM
B15	1750 nM
B10	200 nM
B4	55 nM
B11	4 nM

Target: T9, HLA-DR15 molecule (DRB1*1501) (human)
Test: competition ELISA vs biotin-A3 152-166

Binder	IC50
B1	1770 nM
B2	4000 nM
B7	225 nM
B24	950 nM
B13	4000 nM
B15	425 nM
B16	53 nM
B8	800 nM
B22	55 nM
B9	470 nM
B25	950 nM
B10	675 nM
B18	18 nM
B4	3250 nM
B27	5300 nM
B11	125 nM

Target: T10, HLA-DR3 molecule (DRB1*0301) (human)
Test: competition ELISA vs biotin-MT 2-16

Binder	IC50
B1	560 nM
B13	1230 nM
B8	550 nM
B9	450 nM
B28	3500 nM
B27	4600 nM
B23	3500 nM
